B1: YTH54.12-B4: rat IgG2b anti-CD45 antibody YTH54.12 conjugated to non-cleavable PBD drug-linker B4 (drawing 46) (conjugate)
heavy: EVQLVESGGGLVQPGGSMKLSCAASGFTFSDYYMAWVRQAPKKGLEWVASMSFAGSSTYYGDSVKGRFTISRDNAKTTLYLQMNSLRSEDTATYYCARMYTTDYYLYWYFDFWGPGTMVTVSSAQTTAPSVYPLAPGCGDTTSSTVTLGCLVKGYFPEPVTVTWNSGALSSDVHTFPAVLQSGLYTLTSSVTSSTWPSQTVTCNVAHPASSTKVDKKVERRNGGIGHKCPTCPTCHKCPVPELLGGPSVFIFPPKPKDILLISQNAKVTCVVVDVSEEEPDVQFSWFVNNVEVHTAQTQPREEQYNSTFRVVSALPIQHQDWMSGKEFKCKVNNKALPSPIEKTISKPKGLVRKPQVYVMGPPTEQLTEQTVSLTCLTSGFLPNDIGVEWTSNGHIEKNYKNTEPVMDSDGSFFMYSKLNVERSRWDSRAPFVCSVVHEGLHNHHVEKSISRPPGK
light: DVQMTQSPSYLAASPGESVSISCKASKSISNYLAWYQQKPGEANKILIYSGSTLQSGTPSRFSGSGSGTDFSLTIRNLEPEDFAVYYCQQYDEKPLTFGSGTKLEIKRADAAPTVSIFPPSMEQLTSGGATVVCFVNNFYPRDISVKWKIDGSEQRDGVLDSVTDQDSKDSTYSMSSTLSLTKVEYERHNLYTCEVVHKTSSSPVVKSFNRNEC
B2: YTH54.12-B7: rat IgG2b anti-CD45 antibody YTH54.12 conjugated to PBD drug-linker B7 (drawing 49) (conjugate)
heavy: B1 heavy
light: B1 light
B3: YTH24.5-B4: rat IgG2b anti-CD45 antibody YTH24.5 conjugated to non-cleavable PBD drug-linker B4 (drawing 46) (conjugate)
heavy: QVNLLQSGAALVKPGASVKLSCKASSYTFTDYYIHWVKQSHGKTLEWIGYINPKSGFTNYNEKFRRKATLTVDKSTNTAYMDISRLTSEDSATYYCTRRTGVIPMDAWGQGASVTVSSAQTTAPSVYPLAPGCGDTTSSTVTLGCLVKGYFPEPVTVTWNSGALSSDVHTFPAVLQSGLYTLTSSVTSSTWPSQTVTCNVAHPASSTKVDKKVERRNGGIGHKCPTCPTCHKCPVPELLGGPSVFIFPPKPKDILLISQNAKVTCVVVDVSEEEPDVQFSWFVNNVEVHTAQTQPREEQYNSTFRVVSALPIQHQDWMSGKEFKCKVNNKALPSPIEKTISKPKGLVRKPQVYVMGPPTEQLTEQTVSLTCLTSGFLPNDIGVEWTSNGHIEKNYKNTEPVMDSDGSFFMYSKLNVERSRWDSRAPFVCSVVHEGLHNHHVEKSISRPPGK
light: DVVMTQTPVSLSVSLGGQVSISCRSSQSFVSSDGNTYLNWYLQKPGQSPQLLIYKVSNRLSGVPDRFSGSGSGTDFTLKISRVEHDDLGVYYCGQASKIPLTFGSGTKLEIKRADAAPTVSIFPPSMEQLTSGGATVVCFVNNFYPRDISVKWKIDGSEQRDGVLDSVTDQDSKDSTYSMSSTLSLTKVEYERHNLYTCEVVHKTSSSPVVKSFNRNEC
B4: YTH24.5-B2: rat IgG2b anti-CD45 antibody YTH24.5 conjugated to PBD drug-linker B2 (drawing 44) (conjugate)
heavy: B3 heavy
light: B3 light
B5: YTH24.5-B7: rat IgG2b anti-CD45 antibody YTH24.5 conjugated to PBD drug-linker B7 (drawing 49) (conjugate)
heavy: B3 heavy
light: B3 light

Columns and labels:
293T (CD45-) = test: Cell viability assay 5 days (PrestoBlue), 293T; type: cell-based, human; details: rat IgG2b ADC, n=3
Procedure: (§1) OCIM1, Jurkat and Nalm6 cells were seeded at a final concentration of 1.275×10^4/mL and for 5 days in presence of rat IgG2b Mab or ADC or medium (in triplicate) in wells of flat bottom 96-well plates. 293T cells were seeded at 9.3×10^3 cells per 100 uL per well in flat bottom 96-well plates and allowed to adhere the plate for up to 24 hours. 293T cells were subsequently cultured with rat IgG2b Mabs or ADC or medium (in triplicate wells) as described above. PrestoBlue® Cell viability Reagent (Thermo Fisher Scientific) was added to each and incubated for up to 1.5 hours. Fluorescence intensity from each well was detected using a FLUOstar OPTIMA microplate reader (BMG Labtech). Data was plotted using Prism 8.0 and sigmoid dose-response non-linear regression was used to determine EC50 values. Data points are mean±s.d. for representative experiments.

fLuc+ OCIM1 cells [1] = test: Established AML model in NSG mice, treatment 10 days post-injection; type: in vivo; details: for mice alive at 60 days: cohorts of 5 mice, all tumor-bearing
Procedure: (§2) NSG mice were transplanted with 7.5×10^6 fLuc+ OCIM1 cells i.v. At 10 days post-injection of AML cells, unconjugated antibody or ADCs were injected i.v. via a tail vein at a dose of 1 mg/kg or 5 mg/kg. Mice were regularly monitored for signs of morbidity for the duration of the experiment. For imaging, mice were injected intraperitoneally with 200 μl of 15 mg/mL D-luciferin (Regis Technologies) in PBS. Mice were subsequently anesthetized with 4% isoflurane and maintained at 2% isoflurane. Ten minutes after injection of D-luciferin, mice were placed with anterior side up inside a IVIS Lumina III (PerkinElmer). A sub-saturating image was captured using the auto-exposure setting in the Living Image software (v4.5). Quantification and preparation of images was also carried out using the same software.

Nalm6 (CD45-) = test: Cell viability assay 5 days (PrestoBlue), Nalm6; type: cell-based, human; details: rat IgG2b ADC, n=3
Procedure: as §1

fLuc+ OCIM1 cells [2] = test: AML model in NSG mice, treatment the day after cell injection; type: in vivo; details: for tumor (bioluminescence) signal: 1 mg/kg or 5 mg/kg i.v. the day after OCIM1 injection
Procedure: as §2, with “7.5×10^6 luciferase expressing” for “7.5×10^6”, “On the following day,” for “At 10 days post-injection of AML cells,”, “rat IgG2b antibodies” for “antibody”

human CD45+ cells = test: Allogeneic stem cell transplant model in humanized NSG mice, comparison of payloads; type: in vivo; details: for mean % hCD45+ engraftment in the bone marrow: 8 weeks after allogeneic GFP+ cells, PBS 14.12%
Procedure: Adult NSG mice (Charles River Laboratories) were sublethally irradiated with 2.5 Gy in a ^137Cs irradiator. On the following day, mice were injected with 0.5×10^6 freshly thawed cryopreserved human CD34+ cells from a health donor were injected via the tail vein in 150 μL PBS using a 29 gauge MicroFine Plus insulin syringe (BD). Engraftment of human cells in the blood was assessed periodically from 6 weeks after transplantation. At 10 weeks post-transplant, humanized NSG mice were assigned into cohorts with similar median human CD45+ cell engraftment in the blood, as determined by flow cytometry. Mice were injected with PBS or 1 mg/kg YTH24.5-B1. Sixteen 16 days after treatment, mice were transplanted with 0.5×10^6 GFP+CD34+ cells from another healthy donor. Irradiated NSG […] were also transplanted with the GFP+CD34+ from the allogeneic healthy donor as a control for engraftment of the GFP+CD34+ cells. 8 weeks after transplantation of GFP+ cells, mice were culled and blood, spleen and bone marrow taken for analysis by flow cytometry.
Experimental schedule is as previously described in example 16 but with the following modifications. Humanized NSG mice at 10 weeks post-transplant were injected with PBS or 1 mg/kg YTH24.5-B1, YTH54.12-B1, Isotype-B1, YTH24.5-B4 and Isotype-3376. Isotype-B2 and YTH24.5-B2 was given at a dose of 5 mg/kg. Transplantation of 0.5×10^6 GFP+CD34+ from an allogeneic human donor and analysis at 8 weeks post-transplant of GFP+ cells was carried out as previously described.

Molecule	EC50 (293T (CD45-)) [nM]	mice alive at 60 days (fLuc+ OCIM1 cells [1])	EC50 (Nalm6 (CD45-)) [nM]	tumor (bioluminescence) signal (fLuc+ OCIM1 cells [2])	period of tumor regression / low tumor signal (fLuc+ OCIM1 cells [1])	percentage GFP+ human CD34+ cells in the bone marrow (mean) (human CD45+ cells; 1 mg/kg) [%]	mean % hCD45+ engraftment in the bone marrow (human CD45+ cells; 1 mg/kg) [%]	time within which tumor signal increased again (fLuc+ OCIM1 cells [1]) [days]	percentage GFP+ human CD34+ cells in the bone marrow (mean) (human CD45+ cells; 5 mg/kg) [%]	mean % hCD45+ engraftment in the bone marrow (human CD45+ cells; 5 mg/kg) [%]	mice developing tumor / tumor signal (fLuc+ OCIM1 cells [2]; 1 mg/kg or 5 mg/kg i.v., cohorts of 5 mice)
B1	> 6	4/5	0.715	–	–	–	–	–	–	–	–
B2	> 6	–	1.56	–	–	–	–	–	–	–	–
B3	> 6	–	0.162	Low/absent tumor signal	marginally longer period of low tumor signal than YTH24.5-B1	57.95	7.34	–	–	–	–
B4	> 6	1/5	0.0301	Low/absent tumor signal	shortest period of tumor regression	–	–	≤ 10	72.14	1.089	–
B5	> 6	–	0.905	Increasing tumor signal in three mice	–	–	–	–	–	–	3/5
